Source: US20100260668A1 (published 2010)

B1: DVD472 (bispecific antibody, human IgG1, kappa)
heavy: not shown
light: DIQMTQSPSSLSASVGDRVTITCRASQDVSTAVAWYQQKPGKAPKLLIYSASFLYSGVPSRFSGSGSGTDFTLTISSLQPEDFATYYCQQSYTTPPTFGQGTKVEIKRTVAAPSVFIFPPDIQMTQSPSSLSASVGDRVTITCRASQDVSTAVAWYQQKPGKAPKLLIYSASFLYSGVPSRFSGSGSGTDFTLTISSLQPEDFATTYYCQQSYTGTVTFGQGTKVEIKRTVAAPSVFIFPPSDEQLKSGTASVVCLLNNFYPREAKVQWKVDNALQSGNSQESVTEQDSKDSTYSLSSTLTLSKADYEKHKVYACEVTHQGLSSPVTKSFNRGEC
notes: DVD-Ig; N-term; VD AB070 (VEGF), C-term; VD AB015 (DLL4); HC linker long, LC linker long; also called DVD472H; DVD472L
B2: DVD484 (bispecific antibody, human IgG1, kappa)
heavy: not shown
light: B1 light
notes: DVD-Ig; N-term; VD AB070 (VEGF), C-term; VD AB015 (DLL4); HC linker short, LC linker long; also called DVD484H; DVD484L
B3: DVD495 (bispecific antibody, human IgG1, kappa)
heavy: not shown
light: DIQMTQSSSYLSVSLGGRVTITCKASDHINNWLAWYQQKPGNAPRLLISGATSLETGVPSRFSGSGSGKDYTLSITSLQTEDVATYYCQQYWSIPLTFGAGTKLELKRTVAAPSVFIFPPDIQMTQSPSSLSASVGDRVTITCRASQDVSTAVAWYQQKPGKAPKLLIYSASFLYSGVPSRFSGSGSGTDFTLTISSLQPEDFATYYCQQSYTTPPTFGQGTKVEIKRTVAAPSVFIFPPSDEQLKSGTASVVCLLNNFYPREAKVQWKVDNALQSGNSQESVTEQDSKDSTYSLSSTLTLSKADYEKHKVYACEVTHQGLSSPVTKSFNRGEC
notes: DVD-Ig; N-term; VD AB072 (DLL4), C-term; VD AB070 (VEGF); HC linker long, LC linker long; also called DVD495H; DVD495L
B4: DVD507 (bispecific antibody, human IgG1, kappa, L234A L235A)
heavy: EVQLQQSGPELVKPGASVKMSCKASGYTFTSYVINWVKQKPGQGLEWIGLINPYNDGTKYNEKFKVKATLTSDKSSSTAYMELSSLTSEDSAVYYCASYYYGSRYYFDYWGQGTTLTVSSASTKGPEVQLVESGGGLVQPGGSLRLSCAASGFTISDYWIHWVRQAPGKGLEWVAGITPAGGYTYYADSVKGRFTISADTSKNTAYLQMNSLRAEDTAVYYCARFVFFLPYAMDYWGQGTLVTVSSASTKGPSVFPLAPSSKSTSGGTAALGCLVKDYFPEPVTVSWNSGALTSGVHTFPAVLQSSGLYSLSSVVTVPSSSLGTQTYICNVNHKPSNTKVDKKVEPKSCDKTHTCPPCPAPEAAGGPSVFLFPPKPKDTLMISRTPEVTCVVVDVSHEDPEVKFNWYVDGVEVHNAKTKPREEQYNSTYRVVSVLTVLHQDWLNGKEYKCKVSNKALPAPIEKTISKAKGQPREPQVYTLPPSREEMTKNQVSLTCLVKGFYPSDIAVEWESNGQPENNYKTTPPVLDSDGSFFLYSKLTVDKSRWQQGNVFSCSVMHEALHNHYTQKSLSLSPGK
light: B3 light
notes: DVD-Ig; N-term; VD AB072 (DLL4), C-term; VD AB070 (VEGF); HC linker short, LC linker long; also called DVD507H; DVD507L
B5: DVD525 (bispecific antibody, human IgG1, kappa)
heavy: not shown
light: QAVVTQESALTTSPGETVTLTCRSSTGAVTTSNYANWVQEKPDHLFTGLIGGTNNRAPGVPARFSGSLIGDKAALTITGAQTEDEAIYFCALWYSNHWVFGGGTKLTVLGQPKAAPDIQMTQSPSSLSASVGDRVTITCRASQDVSTAVAWYQQKPGKAPKLLIYSASFLYSGVPSRFSGSGSGTDFTLTISSLQPEDFATYYCQQSYTTPPTFGQGTKVEIKRTVAAPSVFIFPPSDEQLKSGTASVVCLLNNFYPREAKVQWKVDNALQSGNSQESVTEQDSKDSTYSLSSTLTLSKADYEKHKVYACEVTHQGLSSPVTKSFNRGEC
notes: DVD-Ig; N-term; VD AB073 (DLL4), C-term; VD AB070 (VEGF); HC linker long, LC linker short; also called DVD525H; DVD525L
B6: DVD466 (bispecific antibody, human IgG1, kappa)
heavy: not shown
light: DIQMTQSPSSLSASVGDRVTITCRASQDVSTAVAWYQQKPGKAPKLLIYSASFLYSGVPSRFSGSGSGTDFTLTISSLQPEDFATYYCQQSYTTPPTFGQGTKVEIKRTVAAPDIQMTQSPSSLSASVGDRVTITCRASQDVSTAVAWYQQKPGKAPKLLIYSASFLYSGVPSRFSGSGSGTDFTLTISSLQPEDFATTYYCQQSYTGTVTFGQGTKVEIKRTVAAPSVFIFPPSDEQLKSGTASVVCLLNNFYPREAKVQWKVDNALQSGNSQESVTEQDSKDSTYSLSSTLTLSKADYEKHKVYACEVTHQGLSSPVTKSFNRGEC
notes: DVD-Ig; N-term; VD AB070 (VEGF), C-term; VD AB015 (DLL4); HC linker short, LC linker short; also called DVD466H; DVD466L
B7: DVD478 (bispecific antibody, human IgG1, kappa)
heavy: not shown
light: B6 light
notes: DVD-Ig; N-term; VD AB070 (VEGF), C-term; VD AB015 (DLL4); HC linker long, LC linker short; also called DVD478H; DVD478L
B8: DVD519 (bispecific antibody, human IgG1, kappa, lambda)
heavy: not shown
light: QAVVTQESALTTSPGETVTLTCRSSTGAVTTSNYANWVQEKPDHLFTGLIGGTNNRAPGVPARFSGSLIGDKAALTITGAQTEDEAIYFCALWYSNHWVFGGGTKLTVLGQPKAAPSVTLFPPDIQMTQSPSSLSASVGDRVTITCRASQDVSTAVAWYQQKPGKAPKLLIYSASFLYSGVPSRFSGSGSGTDFTLTISSLQPEDFATYYCQQSYTTPPTFGQGTKVEIKRTVAAPSVFIFPPSDEQLKSGTASVVCLLNNFYPREAKVQWKVDNALQSGNSQESVTEQDSKDSTYSLSSTLTLSKADYEKHKVYACEVTHQGLSSPVTKSFNRGEC
notes: DVD-Ig; N-term; VD AB073 (DLL4), C-term; VD AB070 (VEGF); HC linker long, LC linker long; also called DVD519H; DVD519L
B9: DVD531 (bispecific antibody, human IgG1, kappa, lambda)
heavy: not shown
light: B8 light
notes: DVD-Ig; N-term; VD AB073 (DLL4), C-term; VD AB070 (VEGF); HC linker short, LC linker long; also called DVD531H; DVD531L
B10: DVD489 (bispecific antibody, human IgG1, kappa, L234A L235A)
heavy: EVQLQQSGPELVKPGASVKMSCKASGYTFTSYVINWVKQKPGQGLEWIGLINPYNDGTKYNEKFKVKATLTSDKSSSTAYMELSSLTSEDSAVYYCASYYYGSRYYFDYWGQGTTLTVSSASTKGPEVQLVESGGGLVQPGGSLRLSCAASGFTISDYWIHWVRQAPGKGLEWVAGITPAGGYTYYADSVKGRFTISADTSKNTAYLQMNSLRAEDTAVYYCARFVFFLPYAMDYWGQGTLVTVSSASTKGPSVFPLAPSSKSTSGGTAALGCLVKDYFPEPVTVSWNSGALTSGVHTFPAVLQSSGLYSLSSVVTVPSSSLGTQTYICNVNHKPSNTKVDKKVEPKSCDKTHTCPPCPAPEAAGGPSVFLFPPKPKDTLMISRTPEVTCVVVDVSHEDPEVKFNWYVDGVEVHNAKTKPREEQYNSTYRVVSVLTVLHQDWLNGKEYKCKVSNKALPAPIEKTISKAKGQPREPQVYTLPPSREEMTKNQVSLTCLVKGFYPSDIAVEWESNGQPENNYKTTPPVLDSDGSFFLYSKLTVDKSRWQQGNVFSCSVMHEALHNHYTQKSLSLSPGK
light: DIQMTQSSSYLSVSLGGRVTITCKASDHINNWLAWYQQKPGNAPRLLISGATSLETGVPSRFSGSGSGKDYTLSITSLQTEDVATYYCQQYWSIPLTFGAGTKLELKRTVAAPDIQMTQSPSSLSASVGDRVTITCRASQDVSTAVAWYQQKPGKAPKLLIYSASFLYSGVPSRFSGSGSGTDFTLTISSLQPEDFATYYCQQSYTTPPTFGQGTKVEIKRTVAAPSVFIFPPSDEQLKSGTASVVCLLNNFYPREAKVQWKVDNALQSGNSQESVTEQDSKDSTYSLSSTLTLSKADYEKHKVYACEVTHQGLSSPVTKSFNRGEC
notes: DVD-Ig; N-term; VD AB072 (DLL4), C-term; VD AB070 (VEGF); HC linker short, LC linker short; also called DVD489H; DVD489L
B11: DVD501 (bispecific antibody, human IgG1, kappa)
heavy: not shown
light: B10 light
notes: DVD-Ig; N-term; VD AB072 (DLL4), C-term; VD AB070 (VEGF); HC linker long, LC linker short; also called DVD501H; DVD501L
B12: DVD450 (bispecific antibody, human IgG1, kappa)
heavy: not shown
light: DIQMTQSPSSLSASVGDRVTITCRASQDVSTAVAWYQQKPGKAPKLLIYSASFLYSGVPSRFSGSGSGTDFTLTISSLQPEDFATYYCQQSYTTPPTFGQGTKVEIKRTVAAPSVFIFPPDIVMTQSPDSLAVSLGERATISCRASESVDNYGISFMKWFQQKPGQPPKLLIYAASNQGSGVPDRFSGSGSGTDFTLTISSLQAEDVAVYYCQQSKEVPWTFGGGTKVEIKRTVAAPSVFIFPPSDEQLKSGTASVVCLLNNFYPREAKVQWKVDNALQSGNSQESVTEQDSKDSTYSLSSTLTLSKADYEKHKVYACEVTHQGLSSPVTKSFNRGEC
notes: DVD-Ig; N-term; VD AB070 (VEGF), C-term; VD AB069 (DLL4); HC linker long, LC linker long; also called DVD450H; DVD450L
B13: DVD462 (bispecific antibody, human IgG1, kappa)
heavy: not shown
light: B12 light
notes: DVD-Ig; N-term; VD AB070 (VEGF), C-term; VD AB069 (DLL4); HC linker short, LC linker long; also called DVD462H; DVD462L
B14: DVD444 (bispecific antibody, human IgG1, kappa)
heavy: not shown
light: DIQMTQSPSSLSASVGDRVTITCRASQDVSTAVAWYQQKPGKAPKLLIYSASFLYSGVPSRFSGSGSGTDFTLTISSLQPEDFATYYCQQSYTTPPTFGQGTKVEIKRTVAAPDIVMTQSPDSLAVSLGERATISCRASESVDNYGISFMKWFQQKPGQPPKLLIYAASNQGSGVPDRFSGSGSGTDFTLTISSLQAEDVAVYYCQQSKEVPWTFGGGTKVEIKRTVAAPSVFIFPPSDEQLKSGTASVVCLLNNFYPREAKVQWKVDNALQSGNSQESVTEQDSKDSTYSLSSTLTLSKADYEKHKVYACEVTHQGLSSPVTKSFNRGEC
notes: DVD-Ig; N-term; VD AB070 (VEGF), C-term; VD AB069 (DLL4); HC linker short, LC linker short; also called DVD444H; DVD444L
B15: DVD456 (bispecific antibody, human IgG1, kappa)
heavy: not shown
light: B14 light
notes: DVD-Ig; N-term; VD AB070 (VEGF), C-term; VD AB069 (DLL4); HC linker long, LC linker short; also called DVD456H; DVD456L

These binders were tested against T1, VEGF (UniProt P15692-4 27-191) (assay: SPR (Biacore), DVD-Ig captured, VEGF in solution).
T1 construct: Bought reagent; also called vascular endothelial growth factor
T1 sequence (P15692 other isoform, or with tags, fused parts or gaps limits assumed): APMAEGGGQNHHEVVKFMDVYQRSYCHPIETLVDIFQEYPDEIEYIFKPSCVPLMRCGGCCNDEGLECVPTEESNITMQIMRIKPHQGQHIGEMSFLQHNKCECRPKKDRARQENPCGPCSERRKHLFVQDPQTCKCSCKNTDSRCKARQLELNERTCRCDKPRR

Kd	koff	kon	Binder
0.201 nM	0.00024 s⁻¹	1.2e+06 M⁻¹ s⁻¹	B1
0.255 nM	0.0041 s⁻¹	1.61e+07 M⁻¹ s⁻¹	B2
0.645 nM	0.000204 s⁻¹	316000 M⁻¹ s⁻¹	B3
0.847 nM	0.000201 s⁻¹	238000 M⁻¹ s⁻¹	B4
0.447 nM	0.000483 s⁻¹	1.08e+06 M⁻¹ s⁻¹	B5
0.71 nM	0.000393 s⁻¹	553000 M⁻¹ s⁻¹	B6
0.354 nM	0.000195 s⁻¹	552000 M⁻¹ s⁻¹	B7
0.223 nM	0.00522 s⁻¹	2.35e+07 M⁻¹ s⁻¹	B8
0.584 nM	0.000442 s⁻¹	756000 M⁻¹ s⁻¹	B9
1.76 nM	0.000365 s⁻¹	207000 M⁻¹ s⁻¹	B10
0.821 nM	0.000175 s⁻¹	213000 M⁻¹ s⁻¹	B11
0.255 nM	0.00431 s⁻¹	1.69e+07 M⁻¹ s⁻¹	B12
0.864 nM	0.000858 s⁻¹	993000 M⁻¹ s⁻¹	B13
0.162 nM	0.0038 s⁻¹	2.35e+07 M⁻¹ s⁻¹	B14
0.281 nM	0.00448 s⁻¹	1.6e+07 M⁻¹ s⁻¹	B15
